Here are results for 19 variants from the RNAGym collection of RNA variant scans (doi:10.1073/pnas.2313332121).

Fewer inactive variants are shown than the library holds. Where only a bound is given, the exact number is not on record here.

B1: TPR 5TU (parent)
chain: GGAUCUUCUCGAUCUAACAAAAAAGACAAAUCUGCCACAAAGCUUGAGAGCAUCUUCGGAUGCAGAGGCGGCAGCCUUCGGUGGCGCGAUAGCGCCAACGUUCUCAACUAUGACACGCAAAACGCGUGCUCCGUUGAAUGGAGUUUAUCAUG

Variants of B1 are the subject of this series. The experiment in a line: polymerase ribozyme fitness, log enrichment relative to wild type (log ratio); higher = more active; in vitro selection for triplet polymerase activity. Summed up:
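Libraries of mutants in each subunit of a heterodimeric triplet polymerase ribozyme were generated by PCR and transcribed. In triplicate, each went through one in vitro selection round: annealing with biotinylated primer, partner subunit and triplets; frozen incubation at −7 °C; gel excision of extended constructs; streptavidin-bead capture; RT-PCR. Fitness, taken from Illumina sequencing of input and output libraries, is the logarithm of a genotype's enrichment over wild-type enrichment, averaged across replicates with inverse-variance weights. The logarithm is base 2, and genotypes needed ≥10 input reads and ≥1 read per output to be kept.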
Take GGAUCUUCUCGAUCUAACAAAAAAGACAGAUCUGCCACAAAGCUUGAGAGCAUCUUCGGAUGCAGAGGCGGCAGCCUUCGGUGGCGCGAUAGCGACAACGUUCUCAACUAUGACACGCCAAACGCGUGCUCCGUUGAAUGCAGUUUAUCAUG [A29G C95A A119C G141C]: the “polymerase ribozyme fitness (log ratio)” value is at most -4.2.
As for GGAUCUUCUCGAUCUAACAAAAAAGACAUAUCUGCCACAAAGCUUGAGAGCAUCUUCAGAUGCAGAGGCGGCAGCCUUCGGUGGGGCGAUAGCGCCAACGUUCUCAACUAUGACACGCAAAACGCGUGCUCCGUUGACUGGAGUUUAUCAUG [A29U G58A C85G A138C], the “polymerase ribozyme fitness (log ratio)” value was at most -4.2.
Consider GGAUCUUCUCGAUCUAACAAAAAAGACAUAUCUGCCACAAGGCUUGACAGCAUCUUCGGAUGCAGAGGCGGCAGCCUUCGGUGGCGCGAUAGCGCCAACGUUCUCAACUAUGACACGCAAAACGCGUGCUCCGUUGAGUGGAGUUUAUCAUG [A29U A41G G48C A138G], for which the “polymerase ribozyme fitness (log ratio)” value is at most -4.2.
As to GGAUCUUCUCGAUCUAACAAAAAAGACAUAUCUGCCAAAAAGCUUGAGACCCUCUUCGGAUGCAGUGGCGGCACCCUUCGGUGGCGCGAUAGCGCCAACGUUCUCAAGUAUGACACGCAAAACGCGUGCUCAGUUGAAUGGAGUUUAUCAUG [A29U C38A G50C A52C A66U G74C C108G C132A], the “polymerase ribozyme fitness (log ratio)” value is at most -4.2.
For the variant GGAUCUUCUCGAUCUAACAAAAAAGACAUAUCUGCCAUAAAGCUUGAGAGCAUCUUCGGAUGCUGAGGCGGCAGCCUUCGGUGGCGCAAUAGCGCCUACGUUCUCAACUAUGACAUGCAAAACGCGUGCUCCGUUGAAUGGAGUUUAUCAUG [A29U C38U A64U G88A A97U C116U], the “polymerase ribozyme fitness (log ratio)” value was at most -4.2.
Consider GGAUCUUCUCGAUCUAACAAAAAAGACAUAUCUGCCACAAAGCUUGAGAGCAUCUUCGCAUGCGGAGGCGGCAGCCUUCGGUGGCGCGAUAGCGCGAACGUUCCCAACGAUGACACGCAAAACGCGUGCUCCGUUGAAUGGAGUUUAUCAUG [A29U G59C A64G C96G U104C U109G], for which the “polymerase ribozyme fitness (log ratio)” value was at most -4.2.
On to GGAUCUUCUCGAUCUAACAAAAAAGACAGACCUGCCACAAAGCUUGAGAGCGUCUUUGGAUGCAGAGGCGGCAGCCUUCGGUGGUGAGAUAGCGCCAACGUUCUCAACUAUGACACGCAAAACGCGUGCUCCGUUGAAUGGAGUUUAUCUUG [A29G U31C A52G C57U C85U C87A A150U], for which the “polymerase ribozyme fitness (log ratio)” value was at most -4.2.
The value for GGAUCUUCUCGAUCUAACAAAAAAGACAUAUCUGCCACAAAGCUUGCGAGCAUAUUCGGAUGCAGAGGCGGCAGCCUUCGGUGGCGCGAUAGCACCAACGUGCUCAACUGUGACACGCAAAACGCGUGCUCAGUUGAAUGGAGUUUAUCAUG [A29U A47C C54A G94A U102G A110G C132A] was at most -4.2; that for GGAUCUUCUCGAUCUAACAAAAAAGACAGAUCUGCCACAAAGCUUGAGAGCAACUUCGGAUGCAGAGGCGGCAGCCUUCGGUGGCGCGAUAGCGCCAACGUUCUCAACUAUGACACGCAAAACGCGUGCUCCGUUGAAUGGAGUUUAUCAUG [A29G U53A] was -3.63.
The same measure for GGAUCUUCUCGAUCUAACAAAAAAGACAUAUCUGCCACAAAGCUUGAGAGCAUCUUCGGAUGCAGAGGCGGCAGCCUUCGGUGGCGCGAUAGCGACAACGUUCUCGACUAUGACACGCAAAACGCGUGCUCCGAUGAAUGGAGUUUAUCAUG [A29U C95A A106G U134A]: at most -4.2; for GGAUCUUCUCGAUCUAACAAAAAAGACAUAUCUGCCACAAAGCUUGAGAGCAUCUUCGGAUGCAGAGGCGGCAGCCUUCGGUGGCGCGAUAGCGCCGACGUUCUCAACUAUGACACGCAAGACGCGUGCUCCGUUGAAUCGAGUUUAUCAUG [A29U A97G A121G G140C]: at most -4.2.
For the variant GGAUCUUCUCGAUCUAACAAAAAAGACAUAUCUGCCACAAAGCUUGAGAGCGUCUUCGGAUGCAGAGGCGGCAGCGUUCGGUGACGCGAUAGCGCCAACGUUCUCAACUAUGACAGGAAAAACGCGUGCUCCGUUGGAUGAAGUUUAUUAUC [A29U A52G C76G G84A C116G C118A A137G G141A C149U G152C], the “polymerase ribozyme fitness (log ratio)” value is at most -4.2.
The value for GGAUCUUCUCGAUCUAACAAAAAAGACAUGUCUGCCACAAAGCUUGAGAGUAUCUUCGGAUGCAGAGGCGGCAGCCUUCGGUGGCGCGGUAGCGCCAACGUUCUCAACUAUGACACGCAAAACGCGUGCUCCGUUGAAUGGAGUUUAUAAUG [A29U A30G C51U A89G C149A] was at most -4.2.
Consider GGAUCUUCUCGAUCUAACAAAAAAGACAUAUCUGCCACAAAGCUUCAGACCAUCUUCGGAUGCAGAGGCGGCAGCCUUCGGUGGCGCGAUAGCGGCAACGUUCUCAACUAUGAGACGCAAAACGCGUGCUCCGUUGAAUGGAGUUUAUCAUG [A29U G46C G50C C95G C114G], for which the “polymerase ribozyme fitness (log ratio)” value is at most -4.2.
For the variant GGAUCUUCUCGAUCUAACAAAAAAGACAUAUCUGCCACAAAGCUUGAACGCAUCUUCGGAUGCAGAGGCGGCAGCCUUCGGUGGCGGGAUAGCGCCAACGUUCUCAACUAUGACACGCAAAACGCGUGCUCCGUUGAAUGGAGUUUAUCAUG [A29U G48A A49C C87G], the “polymerase ribozyme fitness (log ratio)” value is at most -4.2.
With GGAUCUUCUCGAUCUAACAAAAAAGACAUAUCUGCCACAAAGCUUGAGAGCAUUUUCGGAUGCAGAGGCGGCAGCCUCCGGUGGCGCGAUAGCGCCAAGGUUCUCAACUAUGACAUGCAAAACGCGUGCUCCGUUGAAUGGAGUUUAUCAUG [A29U C54U U78C C99G C116U], the “polymerase ribozyme fitness (log ratio)” value is at most -4.2.
The value for GGAUCUUCUCGAUCUAACAAAAAAGACAUAUCUGCCACAAAGCUUCAGAGCAUCUUCGGAUGCAGAGGCGGCAGCCUUCGGUCGCGCGAUAGCGCCAACGUUCUCAAUUAUGACACGCAAAACGCGUGCUCCGUUGAAUGGAGUUUAUCAUG [A29U G46C G83C C108U] was at most -4.2; that for GGAUCUUCUCGAUCUAACAAAAAAGACAGAUCUACCACAAAGCUUGAGAGCAUCUACGGAUGCAGAGGCGGCAGUCUUCGGUGGCGCGAUAGCGCCAACGUUCUCAACUAUGACACGCAAAACGCGUGCUCCGUUGAAUGGAGUUUAUCAUG [A29G G34A U56A C75U] was at most -4.2; that for GGAUCUUCUCGAUCUAACAAAAAAGACAUAUCUGCCCCAAAGCUUGAGAGCAUCGUCGGAUGCAGAGGCGGCAGCCUUCGGUGGCGCGAUAGCGCCAACGUUCUCAACUAUGACACGCAAAACGCGUGCUCCGUCGAAUGGAGUUUAUCAUG [A29U A37C U55G U135C] was at most -4.2.
